In patent US20150307569, “HETEROGENEOUS NUCLEAR RIBONUCLEOPROTEIN A2* (HNRNP A2*) AND NUCLEIC ACID ENCODING THE SAME” (Institute of Zoology, Chinese Academy of Sciences, published 2015):

What was measured:
[1] = target: T1, hnRNP A2* (hnRNP A2 isoform lacking exons 7-9) (Rattus norvegicus); test: competition; very low or no binding; conditions: tags: His6 (pET-28b, E. coli BL21(DE3))
Protocol: (§1) 80 nM oligonucleotides having 5′ ends labeled with [γ-³²P] ATP (³²P-labeled oligonucleotides) were incubated with 400 nM recombinant hnRNP A2* at 4° C. for 30 min in a binding buffer [10 mM Tris(hydroxymethyl)metyl aminomethane (Tris) (pH 8.0), 1 mM ethylenediaminetetraacetic acid (EDTA), and 150 mM KCl] and resolved on a 8% (wt/vol) native PAGE gel. The gel was then visualized by phosphoimaging using a Typhoon PhosphorImager.
(§2) The cDNA encoding hnRNP A2* was cloned and expressed in Escherichia coli, producing a recombinant protein with the expected molecular mass (FIG. 2A). The exons 7-9 coded the glycine-rich domain (GRD) and provided additional DNA/RNA binding sites in addition to two RNA recognition sites (RRM). […] This is in contrast to hnRNP which has a broad DNA-binding specificity with the consensus sequence N(A,C,T)(C,T)(A,G)G(C,G,T)(A,T)NNN. […] The binding specificity of hnRNP A2* was further verified by constructing 10 mutant variants of the MBS, each carrying a single mutation to cytosine at each nucleotide. All the mutations within the MBS abolished the bindings except the mutations of thymines in the vicinity of GGG (FIG. 2E).

[2] = target: T1, hnRNP A2* (hnRNP A2 isoform lacking …); test: EMSA; thymine next to G-tract tolerated; conditions: tags: His6 (pET-28b, E. coli BL21(DE3)); label: 5' 32P
Protocol: as §1, §2

[3] = target: T1, hnRNP A2* (hnRNP A2 isoform lacking …); test: EMSA; minimal binding site; conditions: tags: His6 (pET-28b, E. coli BL21(DE3)); label: 5' 32P
Protocol: as §1, §2

[4] = target: T1, hnRNP A2* (hnRNP A2 isoform lacking …); test: EMSA; per text; conditions: tags: His6 (pET-28b, E. coli BL21(DE3)); label: 5' 32P
Protocol: as §1, §2

[5] = target: T1, hnRNP A2* (hnRNP A2 isoform lacking …); test: EMSA; 10 mM Tris pH 8.0, 1 mM EDTA, 150 mM KCl, 4 C; 400 nM protein, 80 nM DNA; conditions: tags: His6 (pET-28b, E. coli BL21(DE3)); label: 5' 32P
Protocol: as §1, §2

[6] = target: 28-kDa telomeric DNA-binding protein (hnRNP A2*), rat liver nuclear matrix (Rattus norvegicus); test: Southwestern blot; conditions: label: 5' 32P
28-kDa telomeric DNA-binding protein (hnRNP A2*), rat liver nuclear matrix (Rattus norvegicus), sequence (chain, as listed by the source): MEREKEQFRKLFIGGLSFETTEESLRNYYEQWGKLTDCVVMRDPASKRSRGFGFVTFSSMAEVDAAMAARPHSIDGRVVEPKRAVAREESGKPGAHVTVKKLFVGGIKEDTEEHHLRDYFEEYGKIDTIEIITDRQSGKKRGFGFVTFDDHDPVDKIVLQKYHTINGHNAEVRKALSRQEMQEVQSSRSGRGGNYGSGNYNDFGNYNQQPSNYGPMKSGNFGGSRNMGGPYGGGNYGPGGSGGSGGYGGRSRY

[7] = target: T1, hnRNP A2* (hnRNP A2 isoform lacking …); test: EMSA; per text: all MBS mutations abolish except thymines near GGG; conditions: tags: His6 (pET-28b, E. coli BL21(DE3)); label: 5' 32P
Protocol: as §1, §2

[8] = target: T1, hnRNP A2* (hnRNP A2 isoform lacking …); test: EMSA; G-quadruplex substrate complex; stimulates telomerase; conditions: tags: His6 (pET-28b, E. coli BL21(DE3)); G4
Protocol: as §1

[9] = target: T1, hnRNP A2* (hnRNP A2 isoform lacking …); test: EMSA; 150 mM KCl, 4 C; conditions: tags: His6 (pET-28b, E. coli BL21(DE3)); label: 5' 32P
Protocol: as §1, §2

T1 sequence (chain, as listed by the source): as above

TTGGGGTTGGGGTTGGGG (ssDNA) [(TTGGGG)3]
binding result [1]: no binding

TAGGGCTAGGGTTAG (ssDNA, [none]) [15-mer T6C]
binding result [2]: binds

B1: double-stranded (TTAGGG)3 (dsDNA)
DNA 1: TTAGGGTTAGGGTTAGGG
DNA 2: CCCTAACCCTAACCCTAA
binding result [1]: no binding

TTAGAGTTAGAGTTAGAG (ssDNA) [(TTAGAG)3]
binding result [1]: no binding

TAGGGTTAGG (ssDNA) [MBS]
binding result [3]: binds

TAGGGTTAGCGTTAG (ssDNA, [none]) [15-mer G10C]
binding result [4]: no binding

TAGCGTTAGGGTTAG (ssDNA, [none]) [15-mer G4C]
binding result [4]: no binding

TACGGTTAGGGTTAG (ssDNA, [none]) [15-mer G3C]
binding result [4]: no binding

TTAGGGTTAGGGTTAGGG (ssDNA) [(TTAGGG)3]
binding result [5]: binds
binding result [6]: binds

TCGGGTTAGGGTTAG (ssDNA, [none]) [15-mer A2C]
binding result [7]: no binding

GGGCTAGGGCTAGGGCTAGGGAGTT (structured_DNA) [TSG4]
binding result [8]: binds

TAGGGTTAGGGTTAG (ssDNA) [MBS-containing 15-mer W]
binding result [9]: binds

TAGGCTTAGGGTTAG (ssDNA, [none]) [15-mer G5C]
binding result [4]: no binding

TAGGGTTCGGGTTAG (ssDNA, [none]) [15-mer A8C]
binding result [4]: no binding

TAGGGTTACGGTTAG (ssDNA, [none]) [15-mer G9C]
binding result [4]: no binding

TAAGGGTAAGGGTAAGGG (ssDNA) [(TAAGGG)3]
binding result [1]: no binding
